Assay [1] concerns the target human folate receptor 1 (FOLR1) (human).
For assay [2] the target is unchanged. The source holds these as a separate data set.
Assay [3] shares this target. The source holds these as a separate data set.

B1: huMov19 (antibody, V domains shown)
VH: QVQLVQSGAEVVKPGASVKISCKASGYTFTGYFMNWVKQSPGQSLEWIGRIHPYDGDTFYNQKFQGKATLTVDKSSNTAHMELLSLTSEDFAVYYCTRYDGSRAMDYWGQGTTVTVSS
VL: DIVLTQSPLSLAVSLGQPAIISCKASQSVSFAGTSLMHWYHQKPGQQPRLLIYRASNLEAGVPDRFSGSGSKTDFTLNISPVEAEDAATYYCQQSREYPYTFGGGTKLEIKR
Consider B1, for which, in assay [1], the ADCC, LDH release, percent specific lysis of IGROV-1 cells with human NK effector cells worked out at 30% and the EC50 of ADCC activity on IGROV-1 cells came to 0.2 ng/mL.

B2: huMov19-sulfo-SPDB-DM4 (antibody, V domains shown)
VH: QVQLVQSGAEVVKPGASVKISCKASGYTFTGYFMNWVKQSPGQSLEWIGRIHPYDGDTFYNQKFQGKATLTVDKSSNTAHMELLSLTSEDFAVYYCTRYDGSRAMDYWGQGTTVTVSS
VL: DIVLTQSPLSLAVSLGQPAIISCKASQSVSFAGTSLMHWYHQKPGQQPRLLIYRASNLEAGVPDRFSGSGSKTDFTLTISPVEAEDAATYYCQQSREYPYTFGGGTKLEIKR
modifications: maytansinoid DM4 linked to the antibody through the sulfo-SPDB linker, 3.5-4 DM4 per antibody; attachment residues not stated
Molecule B2 gave an IC50, nM (n = 3), Ab-based; in vitro cytotoxicity on IGROV-1 cells in assay [2] of 0.3 nM.

B3: huMov19-SPDB-DM4 (antibody, V domains shown)
VH: QVQLVQSGAEVVKPGASVKISCKASGYTFTGYFMNWVKQSPGQSLEWIGRIHPYDGDTFYNQKFQGKATLTVDKSSNTAHMELLSLTSEDFAVYYCTRYDGSRAMDYWGQGTTVTVSS
VL: DIVLTQSPLSLAVSLGQPAIISCKASQSVSFAGTSLMHWYHQKPGQQPRLLIYRASNLEAGVPDRFSGSGSKTDFTLTISPVEAEDAATYYCQQSREYPYTFGGGTKLEIKR
modifications: maytansinoid DM4 linked to the antibody through the SPDB linker, 3.5-4 DM4 per antibody; attachment residues not stated
As for B3, the IC50, nM (n = 3), Ab-based; in vitro cytotoxicity on JEG-3 cells in assay [2] was 0.2 nM.

B4: huMov19-SMCC-DM1 (antibody, V domains shown)
VH: QVQLVQSGAEVVKPGASVKISCKASGYTFTGYFMNWVKQSPGQSLEWIGRIHPYDGDTFYNQKFQGKATLTVDKSSNTAHMELLSLTSEDFAVYYCTRYDGSRAMDYWGQGTTVTVSS
VL: DIVLTQSPLSLAVSLGQPAIISCKASQSVSFAGTSLMHWYHQKPGQQPRLLIYRASNLEAGVPDRFSGSGSKTDFTLNISPVEAEDAATYYCQQSREYPYTFGGGTKLEIKR
modifications: maytansinoid DM1 linked to the antibody through the SMCC linker, 3.5-4 DM1 per antibody; attachment residues not stated
In assay [2], B4 came in with an IC50, nM (n = 3), Ab-based; in vitro cytotoxicity on IGROV-1 cells of 1 nM; an IC50, nM (n = 3), Ab-based; in vitro cytotoxicity on JEG-3 cells of 20 nM; an IC50, nM (n = 3), Ab-based; in vitro cytotoxicity on KB cells of 0.1 nM. Also, the huAb-smcc-DM1 activity on KB in vitro in assay [3] is 0.1 nM.

Source of the values: patent US20120009181A1.
